Drawing on paper PMC9325769 (Nature Communications, 2022), this text covers Kd for three compounds.

pKd: −log10 of the molar value.

Assay [1] concerns the target pHipTLp (HipTLp, Lpg2370) (Legionella pneumophila, UniProt Q5ZSZ6). Kind of assay: biochemical.
Assay [2] concerns the target co-expressed 6×His-tagged Lpg2369–Lpg2370 (HipTLp–HipSLp) complex (Legionella pneumophila) (UniProt Q5ZSZ7). Put plainly: ITC. In general terms: ITC needs no label: the signal is the heat of the interaction.
Assay [3] concerns the target HipTLp (Lpg2370), 6×His-tagged, expressed alone (autophosphorylated, pHipTLp) (Legionella pneumophila) (UniProt Q5ZSZ6). Put plainly: ITC.

Broadly, the pKd is −log10 of the Kd, conventionally taken in molar units. A higher pKd goes with a low Kd. For `Nc1ncnc2c1ncn2[C@@H]1O[C@H](COP(=O)(O)OP(=O)(O)NP(=O)(O)O)[C@@H](O)[C@H]1O` [AMP–PNP], the pKd in assay [1] was ~4.15.
In assay [2], “HipBLp (Lpg2368) (from UniProt Q5ZSZ8 1-75) (natural protein)” had a pKd of 5.82.
Consider “HipSLp (Lpg2369), untagged wild type (6×His-tag cleaved with TEV protease) (from UniProt Q5ZSZ7 1-102) (natural protein)”, for which, in assay [3], the pKd was 7.38.
